Source: patent EP2970447B1 (Eli Lilly and Company, dated 2018)

How the values were obtained:
Experiment in all cases: SPR (Biacore 2000), antibody captured on Protein A, chemokine in solution, 25°C
human Gro-alpha (CXCL1) = biological target: T1, human Gro-alpha (CXCL1) (human, UniProt P09341 35-107)
T1 construct: also called human CXCL1(Gro alpha)
T1 sequence: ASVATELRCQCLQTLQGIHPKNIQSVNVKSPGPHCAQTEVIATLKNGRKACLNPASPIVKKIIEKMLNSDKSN

human Gro-gamma (CXCL3) = biological target: T2, human Gro-gamma (CXCL3) (human, UniProt P19876 35-107)
T2 construct: also called human CXCL3 (Gro gamma)
T2 sequence: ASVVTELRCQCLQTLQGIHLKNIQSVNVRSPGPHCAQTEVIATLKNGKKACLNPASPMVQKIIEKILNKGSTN

human ENA-78 (CXCL5) = biological target: T3, human ENA-78 (CXCL5) (human, UniProt P42830 41-114)
T3 construct: also called human CXCL5 (ENA-78)
T3 sequence: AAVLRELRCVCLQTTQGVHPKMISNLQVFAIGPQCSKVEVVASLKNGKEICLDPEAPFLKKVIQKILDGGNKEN

human GCP-2 (CXCL6) = biological target: T4, human GCP-2 (CXCL6) (human, UniProt P80162 40-114)
T4 construct: also called human CXCL6 (GCP-2)
T4 sequence: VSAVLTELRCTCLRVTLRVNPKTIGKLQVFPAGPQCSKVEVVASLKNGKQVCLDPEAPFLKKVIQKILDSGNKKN

human NAP-2 (CXCL7) = biological target: T5, human NAP-2 (CXCL7) (human, UniProt P02775 59-128)
T5 construct: also called human CXCL7 (NAP-2)
T5 sequence: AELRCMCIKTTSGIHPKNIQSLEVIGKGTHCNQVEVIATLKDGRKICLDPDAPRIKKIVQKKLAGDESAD

human IL-8 (CXCL8) = biological target: T6, human IL-8 (CXCL8) (human, UniProt P10145 28-99)
T6 construct: also called human CXCL8 (IL-8); wild type human CXCL8
T6 sequence: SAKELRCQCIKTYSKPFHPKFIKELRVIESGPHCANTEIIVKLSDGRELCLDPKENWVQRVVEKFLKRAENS

B1: Antibody 2 (antibody, human IgG4 S228P, kappa, V domains shown)
VH: QVQLVQSGAEVKKPGASVKVSCKASGYEFTSYWIHWVRQAPGQGLEWMGNISPNSGSANYNEKFKSRVTMTRDTSTSTVYMELSSLRSEDTAVYYCAREGPYSYYPSRQYYGSDLWGQGTLVTVSS
VL: EIVLTQSPATLSLSPGERATLSCRASQSISNNLHWYQQKPGQAPRLLIYYTSRSVSGIPARFSGSGSGTDFTLTISSLEPEDFAVYYCGQNNEWPEVFGGGTKVEIKR
notes: Full-length antibody expressed in NS0 cells
koff (human Gro-alpha (CXCL1)): 1.53e-05 s⁻¹
koff (human Gro-gamma (CXCL3)): 1.76e-05 s⁻¹
koff (human ENA-78 (CXCL5)): 1.51e-05 s⁻¹
koff (human GCP-2 (CXCL6)): 6.11e-05 s⁻¹
koff (human NAP-2 (CXCL7)): 2.18e-05 s⁻¹
koff (human IL-8 (CXCL8)): 1.24e-05 s⁻¹
